Laboratory results taken from the Human Domainome abundance scans (Beltran et al. 2025).
± gives the uncertainty stated by the source.

B1: Zinc finger homeobox protein 3, residues 2643 to 2698; numbered along this chain, Q15911 (parent)
chain: RLRTTITPEQLEILYQKYLLDSNPTRKMLDHIAHEVGLKKRVVQVWFQNTRARERK

Variants of: B1
Test: abundance fitness (aPCA) (normalised: wild type 0, dead -1); higher = more abundant; growth selection in yeast, the domain comes from the species named
Details: Homo sapiens

Abundance fitness, by site and new letter:
L11: K -0.143 ± 0.12, S 0.022 ± 0.09, I -0.224 ± 0.19, W -0.11 ± 0.097, C -0.648 ± 0.14, R 0.049 ± 0.074, Y -0.024 ± 0.15, F -0.341 ± 0.14, Q -0.133 ± 0.11, D 0.17 ± 0.11, V -0.021 ± 0.076, M -0.032 ± 0.12, E 0.026 ± 0.11, G -0.02 ± 0.072, N 0.305 ± 0.25, T -0.117 ± 0.14, P -0.494 ± 0.14, H 0.028 ± 0.13
L19: A -0.075 ± 0.11, M 0.039 ± 0.13, W -0.365 ± 0.11, S -0.154 ± 0.092, N -0.422 ± 0.16, P -0.535 ± 0.18, G -0.175 ± 0.078, K -0.022 ± 0.18, Q -0.233 ± 0.13, Y -0.339 ± 0.16, H -0.14 ± 0.15, D -0.211 ± 0.13, V -0.12 ± 0.11, E -0.254 ± 0.14, C -0.032 ± 0.12, F -0.36 ± 0.15, R -0.087 ± 0.078, I -0.583 ± 0.17
I6: Y 0.035 ± 0.081, V -0.022 ± 0.08, T -0.211 ± 0.081
P8: G 0.193 ± 0.079, K -0.352 ± 0.23, M 0.57 ± 0.15, D -0.084 ± 0.14, T -0.116 ± 0.16, R 0.196 ± 0.089, L 0.991 ± 0.1, V 0.544 ± 0.094, A 0.388 ± 0.095, C 0.475 ± 0.15, E -0.259 ± 0.14, I 0.993 ± 0.19, W 0.193 ± 0.12, S -0.09 ± 0.1, Q -0.401 ± 0.21, Y 0.116 ± 0.14, F 0.584 ± 0.2, N -0.06 ± 0.3
D21: I -0.533 ± 0.21, P -0.604 ± 0.15, F -0.373 ± 0.23, K -0.924 ± 0.2, C -0.426 ± 0.15, W -0.741 ± 0.12, G -0.321 ± 0.087, R -0.803 ± 0.1, E -0.008 ± 0.14, V -0.407 ± 0.099, S -0.417 ± 0.11, L -0.553 ± 0.11, M -0.22 ± 0.14, Y -0.675 ± 0.22, Q -0.255 ± 0.17
P24: I -0.747 ± 0.17, E -0.78 ± 0.14, H -0.687 ± 0.19, N -0.623 ± 0.17, V -0.785 ± 0.088, D -0.634 ± 0.13, L -0.79 ± 0.11, C -0.96 ± 0.17, R -0.828 ± 0.082, G -0.857 ± 0.088, Q -0.354 ± 0.14, F -0.644 ± 0.17, M -0.777 ± 0.16, K -0.935 ± 0.21, Y -0.548 ± 0.19, S -0.764 ± 0.11, A -0.82 ± 0.096, W -0.165 ± 0.088, T -0.957 ± 0.15
Q16: N -0.226 ± 0.21, R -0.174 ± 0.082, S -0.213 ± 0.1, I -0.073 ± 0.26, V 0.357 ± 0.08, D -0.246 ± 0.13, H -0.267 ± 0.19, F 0.042 ± 0.22, W -0.615 ± 0.13, P -1.08 ± 0.21, M 0.225 ± 0.11, A 0.052 ± 0.086, L 0.572 ± 0.096, K -0.106 ± 0.13, G -0.113 ± 0.077, Y -0.436 ± 0.16, T -0.021 ± 0.13
L20: A -0.211 ± 0.096, K -0.147 ± 0.12, C -0.022 ± 0.12, N -0.27 ± 0.14, Y -0.466 ± 0.19, I -0.056 ± 0.17, W -0.227 ± 0.088, F -0.111 ± 0.13, E -0.079 ± 0.15, T -0.057 ± 0.11, M 0.093 ± 0.11, V 0.002 ± 0.094, D -0.226 ± 0.16, H -0.286 ± 0.13, P -1.08 ± 0.17, G -0.049 ± 0.086, Q 0.109 ± 0.1, R -0.331 ± 0.077
T25: S -0.267 ± 0.089, F -0.605 ± 0.23, E -0.081 ± 0.099, K -0.506 ± 0.15, C -0.191 ± 0.12, P -0.145 ± 0.12, N -0.206 ± 0.2, H -0.448 ± 0.19, V -0.349 ± 0.082, L -0.552 ± 0.095, Y -0.908 ± 0.32, G -0.394 ± 0.074, Q -0.505 ± 0.16, R -0.753 ± 0.093, A -0.243 ± 0.087, D 0.189 ± 0.11, W -0.951 ± 0.13, M -0.256 ± 0.12, I -0.502 ± 0.14
R26: C 0.306 ± 0.1, E 0.419 ± 0.096, D 0.458 ± 0.13, F 0.029 ± 0.1, A 0.434 ± 0.088, G 0.386 ± 0.072
I13: C -0.058 ± 0.094, R -0.123 ± 0.082, V 0.057 ± 0.088, G -0.24 ± 0.077, Y 0.012 ± 0.14, A -0.079 ± 0.098, P -0.951 ± 0.17, W -0.172 ± 0.091, T -0.01 ± 0.1, F 0.119 ± 0.14, N -0.287 ± 0.16, S -0.184 ± 0.084, M -0.253 ± 0.13, E -0.339 ± 0.12, Q -0.095 ± 0.12, K -0.096 ± 0.12
